In the test the target is TACE expressed on resting and LPS-stimulated THP-1 cells, P78536. The test is described as follows: cell-based or functional assay.

Values joined by “and” are separate entries in the source; they are usually repeats but may differ in a detail not shown here. Equal entries are not always repeated.

Sequence of TACE expressed on resting and LPS-stimulated THP-1 cells, P78536 (P78536 215-824 limits assumed): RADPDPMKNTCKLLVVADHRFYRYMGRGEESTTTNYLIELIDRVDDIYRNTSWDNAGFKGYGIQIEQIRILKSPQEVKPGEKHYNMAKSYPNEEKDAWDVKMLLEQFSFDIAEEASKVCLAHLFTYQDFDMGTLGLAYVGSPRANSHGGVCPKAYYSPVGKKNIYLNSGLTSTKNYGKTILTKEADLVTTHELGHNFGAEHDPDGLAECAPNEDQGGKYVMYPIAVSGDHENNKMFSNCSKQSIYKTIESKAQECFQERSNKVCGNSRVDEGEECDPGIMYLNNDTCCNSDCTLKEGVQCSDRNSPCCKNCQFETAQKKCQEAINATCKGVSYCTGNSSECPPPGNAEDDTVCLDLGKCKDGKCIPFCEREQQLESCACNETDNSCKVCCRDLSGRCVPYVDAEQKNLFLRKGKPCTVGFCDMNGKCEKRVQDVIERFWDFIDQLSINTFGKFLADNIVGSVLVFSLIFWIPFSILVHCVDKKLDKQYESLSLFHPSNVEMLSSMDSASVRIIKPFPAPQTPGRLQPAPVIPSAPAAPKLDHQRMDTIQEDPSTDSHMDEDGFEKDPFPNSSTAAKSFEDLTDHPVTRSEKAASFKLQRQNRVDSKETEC

In the case of GFCRCLCRRGVCRCICTR (modifications not checked) [Rhesus θ-defensin-1 (RTD-1)], the IC50, inhibition of TACE in cell-based assay on THP-1 cells is 15 µg/ml and 7.4 µM.

These data come from patent publication US10512669.
